Results as given in article PMC10397247.

Experiments:
Assay in all cases: two-hybrid library CCNG1;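 note: natural log of median RNA to DNA barcode read ratio; higher means stronger binding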
[1] = target: T1, 4H949-bH
T1 chain: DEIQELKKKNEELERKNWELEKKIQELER

[2] = target: T2, 4H932-bH
T2 chain: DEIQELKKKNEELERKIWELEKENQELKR

[3] = target: T3, O1-bP
T3 chain: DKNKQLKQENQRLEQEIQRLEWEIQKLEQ

- interaction score [1]: -0.517
- interaction score [2]: -0.509
- interaction score [3]: -1.96
B1: 4H932-bH (peptide)
chain: DEIQELKKKNEELERKIWELEKENQELKR
